Assay results: publication PMC7673989 (2020)

Tests used:
[1] = target: T1, KETWV peptide (synthetic construct); experiment: ITC, 21 °C
T1 chain: KETWV

[2] = target: T1, KETWV peptide; experiment: intrinsic tryptophan fluorescence quenching, 21 °C

B1: PSD-95 PDZ3 302-403 (protein)
chain: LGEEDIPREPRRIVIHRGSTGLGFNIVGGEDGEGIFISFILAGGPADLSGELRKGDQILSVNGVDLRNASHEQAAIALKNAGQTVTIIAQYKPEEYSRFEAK
B1 showed a Kd [1] of 25.2 µM and a Kd [2] of 24.6 µM.
